# According to the nanobody polyreactivity screen of Harvey et al. (2022):
# Experiment: yeast display, Sf9 membrane polyspecificity reagent, FACS + sequencing; frameworks hold sequencing errors
# Method in brief: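 A synthetic nanobody library was expressed on Saccharomyces cerevisiae BJ5465 by galactose induction for 36–48 hours. The library was stained for 1 hour at 4 °C with 10% biotinylated, detergent-solubilized Sf9 membrane reagent and enriched with streptavidin microbeads before FACS. Low and high (top ~1%) gates were set on anti-HA fluorescence for expression and streptavidin fluorescence for reagent binding, and each polyreactivity label reflects the gate of origin.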
row,Sequence,polyreactivity (PSR sort gate)
1,QVQLVESGGGLVHAGGSLRLSCAASGSIFYHYAMGWYRQAPGKERELVAAITWSGGSTYYADSVKGRFTISRDNAKNTVYLQMNSLKPEDTAVYYCATSSNVEFGYWGQGTQVTVSS,low polyreactivity
2,QVQLVESGGGLVQAGGSLRLSCAASGSTLSRYAMGWYRQAPGKERELVAAISWSGGRTYYADSVKGRFTISRDYAKNTVYLQMNSLKPEDTAVYYCAARYGYRTPDGDYWGQGTQVTVSS,high polyreactivity
3,QVQLVESGGGLVQAGGSLRLSCAASGSTFVIYAMGWYRQAPGKERELVAAIRRRGGSTYYADSVKGRFTISRDNAKNTVYLQMNSLKPEDSAVYYCATAGQGAFWGQGTQVTVSS,high polyreactivity
4,QVQLVESGGGLVQAGGSLRLSCAASGSIFTWYAMGWYRQAPGKETELVARINVSAGITYYADSVKGRFTISRDNAKNTVYLQMNSLKPEDTAVYYCAAEDFTRQFEYWGQGTQVTVSS,low polyreactivity
5,QVQLVESGGGLVQAGGSLRLSCAASGNAMGWYRQAPGKERELVAAITRRGGSTYYADSVKGRFTISRDNAKNTVYLQMNSLKPEDTAVYYCNADYAYYSYDYWGQGTQVTVSS,low polyreactivity
6,QVQIVESGGGLVQAGGSLRVTCAASGSIFPPKAMGWYRQAPGKERELLADISGSGRTYYADSVKGRFTISRDNAKNTVYLQMNSLNPEDTAVYYCAARQQRRPTTRVFGYWGQGTQVTVSS,high polyreactivity
7,QVQLVESGGGLVQAGGSLRLSCAASGSILGVYTMGWYRQAPGKERELVARIRLSGGSTYYADSVKGRFTISRDNAKNTVYLQMNSLIPEDTAVYYCAARYSRARFTDPYYYWGQGTQVTVSS,high polyreactivity
8,QVQLVESGGGLVLAGGSLRLSCAASGRTFRYYTMGWFRPAPGKEREFVAAISSTGGTYYADSVKGRFTISRDNAKNTVYLQMNSLNPEDTAVYYCAATFIQVVVNVQLYDYDYWGQGTQVTVSS,low polyreactivity
9,QVQLVESGGGLVQAGGSLRLSCAASGFTFARYAMGWYRQAPGKERELVAAIIWSGGRTYYADSVKGRFTISRDTAKNTVYLQMNSLKPEDTAVYYCNAWGLFYYSSGYDYWGQGTQVTVSS,high polyreactivity
10,QVQLVESGGGLVQAGGSLRLSCVASGSISQTYDMGWYRQAPGKERELVAAISSSGASTYYADSVKGRFTISRDNAKNTVYLQMNSLKPEDTAVYYCNADKFRRYGYWGQGTQVTVSS,high polyreactivity
11,QVQLVESGGGLVQAGGSLRLSCAASGRTFYNAMGWYRQAPGKERELVAAISASGARTYYADSVKGRFTISRDNAKNTVYLQMNSLKPEDTAVYYCATKSQRYARDYWGQGTQVTVSS,high polyreactivity
12,QVQLVESGGGLVQAGGSLRLSCAASGRIFAKYAMGWSRQAPGTERELVAAISWRGGRTYYADSVKGRFTISRDNAKNTVYLQMNSLKPEDTAVYYCNAVGSRAYVASAWTQMDYWGQGTQVTVSS,high polyreactivity
13,QVQLVESGGGLVQAGGSLRLSCGASGLTFVWYGMGWYRQAPGKERELVAAITRGGSTYYADSVKGRFTISRDNAKNTVYLQMNSVKPEDTAVYYCAARYKYTGYDYWGQGTQVTVSS,high polyreactivity
14,QVQLVESGGGLVQAGGSLRLSCAASGIIVPNAMGWYRPAPGKERELVAAMSRSGGSTNYADSVKGRFTISRDNAKNTVYLQMNSLKPEDTAVYYCATKYNADTRYDYWGQGTQVTVSS,low polyreactivity
15,QVQLVESGGGLVQAGGSLSLSCAASGRTFGYNAKGWYRQAPGKERELVASISYRGGSTYYADSVKGRFTISRDNAKNSVYLQMNSLKPEDTAVYYCNKYYVLREYYWGQGTQVTVSS,high polyreactivity
16,QVQLVESGGGLVQAGGSLRLSCAASGRIFYDYTMGWYRQAPGKERELVAAINSGGGSTYYADSVKGRFTISRDNAKITVYLQMNSLKPEDTAVYYCNADGQWNIWEYDYWGQGTQVTVSS,high polyreactivity
17,QVQLVESGGGLVQAGGSLRLSCAASGRIYLYAMGWYRQAPRKERELVASISYSGGSTYYADSVKGRFTISRDNAKNTVYLQMNSLKPEDTAVYYCATRRAGSCPPYGYWGQGSQVTVSS,high polyreactivity
